For two molecules, binding result and stoichiometry N (phyB per PIF6β) results are on record in publication PMC12098889, “Structural insight into PIF6-mediated red light signal transduction of plant phytochrome B” (Cell Discovery, 2025).

Series [1] deals with the molecule itself. As to the kind of experiment: cryo-EM structure; phyB and PIF6β mixed ~1:1.5, on ice under red light (665 nm, 800 μmol m^-2 s^-1), SEC in 25 mM HEPES pH 7.8, 250 mM KCl, 10 mM DTT, 1 mM EDTA; irradiated with red light 20 min before freezing.
For series [2], the target named is PIF6β (1‒182) (Arabidopsis). As to the kind of experiment: cryo-EM structure; phyB^Y276H or phyBN^Y276H mixed with PIF6β ~1:1.5; full-length complex prepared in the dark; SEC on Superose 6 Increase before freezing.
Series [3] deals with the molecule itself. Described as above.

B1: phytochrome B (phyB), full length (1‒1172) (receptor, Arabidopsis, UniProt P14713 1-1172, looked up)
chain: MVSGVGGSGGGRGGGRGGEEEPSSSHTPNNRRGGEQAQSSGTKSLRPRSNTESMSKAIQQYTVDARLHAVFEQSGESGKSFDYSQSLKTTTYGSSVPEQQITAYLSRIQRGGYIQPFGCMIAVDESSFRIIGYSENAREMLGIMPQSVPTLEKPEILAMGTDVRSLFTSSSSILLERAFVAREITLLNPVWIHSKNTGKPFYAILHRIDVGVVIDLEPARTEDPALSIAGAVQSQKLAVRAISQLQALPGGDIKLLCDTVVESVRDLTGYDRVMVYKFHEDEHGEVVAESKRDDLEPYIGLHYPATDIPQASRFLFKQNRVRMIVDCNATPVLVVQDDRLTQSMCLVGSTLRAPHGCHSQYMANMGSIASLAMAVIINGNEDDGSNVASGRSSMRLWGLVVCHHTSSRCIPFPLRYACEFLMQAFGLQLNMELQLALQMSEKRVLRTQTLLCDMLLRDSPAGIVTQSPSIMDLVKCDGAAFLYHGKYYPLGVAPSEVQIKDVVEWLLANHADSTGLSTDSLGDAGYPGAAALGDAVCGMAVAYITKRDFLFWFRSHTAKEIKWGGAKHHPEDKDDGQRMHPRSSFQAFLEVVKSRSQPWETAEMDAIHSLQLILRDSFKESEAAMNSKVVDGVVQPCRDMAGEQGIDELGAVAREMVRLIETATVPIFAVDAGGCINGWNAKIAELTGLSVEEAMGKSLVSDLIYKENEATVNKLLSRALRGDEEKNVEVKLKTFSPELQGKAVFVVVNACSSKDYLNNIVGVCFVGQDVTSQKIVMDKFINIQGDYKAIVHSPNPLIPPIFAADENTCCLEWNMAMEKLTGWSRSEVIGKMIVGEVFGSCCMLKGPDALTKFMIVLHNAIGGQDTDKFPFPFFDRNGKFVQALLTANKRVSLEGKVIGAFCFLQIPSPELQQALAVQRRQDTECFTKAKELAYICQVIKNPLSGMRFANSLLEATDLNEDQKQLLETSVSCEKQISRIVGDMDLESIEDGSFVLKREEFFLGSVINAIVSQAMFLLRDRGLQLIRDIPEEIKSIEVFGDQIRIQQLLAEFLLSIIRYAPSQEWVEIHLSQLSKQMADGFAAIRTEFRMACPGEGLPPELVRDMFHSSRWTSPEGLGLSVCRKILKLMNGEVQYIRESERSYFLIILELPVPRKRPLSTASGSGDMMLMMPY
modifications: PΦB chromophore covalently linked to C357
notes: Arabidopsis phytochrome B, residues 1-1172, At2g18790; The same protein is Pr in the dark and Pfr after red light; The purification uses Ni-NTA, but no His tag on phyB is described; also called wild-type phyB; phyB-Pr (dark); source: E. coli BL21(DE3), co-expressed with HO1 and HY2, purified (Ni-NTA, anti-FLAG resin, Source Q); not shown: 3× Flag ([residues removed]), N-terminal, kept
Regarding B1, the binding result in series [1] is “binds”.

B2: phyB^Y276H, full length (receptor, Arabidopsis, UniProt P14713 1-1172, looked up)
chain: MVSGVGGSGGGRGGGRGGEEEPSSSHTPNNRRGGEQAQSSGTKSLRPRSNTESMSKAIQQYTVDARLHAVFEQSGESGKSFDYSQSLKTTTYGSSVPEQQITAYLSRIQRGGYIQPFGCMIAVDESSFRIIGYSENAREMLGIMPQSVPTLEKPEILAMGTDVRSLFTSSSSILLERAFVAREITLLNPVWIHSKNTGKPFYAILHRIDVGVVIDLEPARTEDPALSIAGAVQSQKLAVRAISQLQALPGGDIKLLCDTVVESVRDLTGYDRVMVHKFHEDEHGEVVAESKRDDLEPYIGLHYPATDIPQASRFLFKQNRVRMIVDCNATPVLVVQDDRLTQSMCLVGSTLRAPHGCHSQYMANMGSIASLAMAVIINGNEDDGSNVASGRSSMRLWGLVVCHHTSSRCIPFPLRYACEFLMQAFGLQLNMELQLALQMSEKRVLRTQTLLCDMLLRDSPAGIVTQSPSIMDLVKCDGAAFLYHGKYYPLGVAPSEVQIKDVVEWLLANHADSTGLSTDSLGDAGYPGAAALGDAVCGMAVAYITKRDFLFWFRSHTAKEIKWGGAKHHPEDKDDGQRMHPRSSFQAFLEVVKSRSQPWETAEMDAIHSLQLILRDSFKESEAAMNSKVVDGVVQPCRDMAGEQGIDELGAVAREMVRLIETATVPIFAVDAGGCINGWNAKIAELTGLSVEEAMGKSLVSDLIYKENEATVNKLLSRALRGDEEKNVEVKLKTFSPELQGKAVFVVVNACSSKDYLNNIVGVCFVGQDVTSQKIVMDKFINIQGDYKAIVHSPNPLIPPIFAADENTCCLEWNMAMEKLTGWSRSEVIGKMIVGEVFGSCCMLKGPDALTKFMIVLHNAIGGQDTDKFPFPFFDRNGKFVQALLTANKRVSLEGKVIGAFCFLQIPSPELQQALAVQRRQDTECFTKAKELAYICQVIKNPLSGMRFANSLLEATDLNEDQKQLLETSVSCEKQISRIVGDMDLESIEDGSFVLKREEFFLGSVINAIVSQAMFLLRDRGLQLIRDIPEEIKSIEVFGDQIRIQQLLAEFLLSIIRYAPSQEWVEIHLSQLSKQMADGFAAIRTEFRMACPGEGLPPELVRDMFHSSRWTSPEGLGLSVCRKILKLMNGEVQYIRESERSYFLIILELPVPRKRPLSTASGSGDMMLMMPY
modifications: PΦB chromophore covalently bound
notes: Arabidopsis phytochrome B, residues 1-1172, At2g18790, with Y276H; also called constitutively active mutant phyB^Y276H; source: E. coli BL21(DE3), co-expressed with HO1 and HY2, purified (Ni-NTA, anti-FLAG resin, Source Q); not shown: 3× Flag ([residues removed]), N-terminal, kept
The molecule B2 gave a stoichiometry N (phyB per PIF6β) in series [2] of 2. Moreover, the binding result in series [3] is given as “binds”.
